Reference: patent publication US11278600B2, “Human alpha-galactosidase variants” (Codexis, Inc., priority 2014, dated 2022)
Where a chain is given by its changes, count along the chain named.

Assays:
Assay type in all cases: biochemical
[1] = HTP-analysis of yeast culture supernatants, no challenge (MUGal hydrolysis); conditions: activity of the variant/activity of Rd4BB (SEQ ID NO: 15)
In short: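 GLA variants were expressed in INVSc1 yeast grown in SD-Ura broth with glucose at 30° C., and culture supernatants were collected after 66-84 h. Supernatant was mixed with McIlvaine buffer pH 4.8 and MUGal (2 mM stock) in 50 mM citrate, 200 mM KCl, pH 4.6, incubated at 37° C. for 30-180 minutes, then quenched with sodium carbonate.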

[2] = HTP-analysis of supernatants pretreated with acid (MUGal hydrolysis); conditions: activity of the variant/activity of Rd4BB (SEQ ID NO: 15); challenge at pH 3.7
In short: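 Supernatants from INVSc1 yeast secreting GLA variants were challenged at 37° C. for 1-3 h in McIlvaine buffer at pH 3.3-4.3. Residual activity was then measured on 4 mM MUGal substrate stock at pH 4.8 with citrate buffer pH 4.3, over 30-180 min at 37° C. Reactions were quenched with sodium carbonate and read by fluorescence (Ex 355/Em 448 nm).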

[3] = HTP-analysis of supernatants pretreated with base (MUGal hydrolysis); conditions: activity of the variant/activity of Rd4BB (SEQ ID NO: 15); challenge at pH 9.65
In short: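 GLA variants were secreted by transformed INVSc1 yeast grown 66-84 h at 30° C. Supernatants were exposed to neutral-to-basic buffers (pH 7.0-9.7) at 37° C for 1-18 h, then assayed with MUGal in acidic citrate/McIlvaine buffer, with fluorescence read after quenching.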

B1: 478 (protein)
chain: LDNGLARTPTMGWLHWERFMCNLDCQEEPDSCISEKLFMEMAERMVSEGWKDAGYEYLCIDDCWMAPQRDSEGRLQADPQRFPHGIRQLANYVHSKGLKLGIYADVGNKTCAGFPGSFGYYDIDAQTFADWGVDLLKFDGCYCDSLENLADGYKHMSLALNRTGRSIVYSCEWPLYMWPFQKPNYTEIRQYCNHWRNFADIDDSWKSIKSILDWTSFNQERIVDVAGPGGWNDPDMLVIGNFGLSWNQQVTQMALWAIMAAPLFMSNDLRHISPQAKALLQDKDVIAINQDPLGKQGYQLRQGDNFEVWERPLSGLAWAVAMINRQEIGGPRSYTIAVASLGKGVACNPACFITQLLPVKRKLGFYEWTSRLRSHINPTGTVLLQLENTMQSSLKDLL
modifications: Synthetic Polypeptide sequence of Variant No. 478 of mature Human GLA
**Q.** Which results are given for B1?
**A.** Relative Activity of GLA Variants After No Challenge (NC) [1]: + (0.5 to 1.5 relative activity over Rd4BB (SEQ ID NO: 15)); Relative Activity of GLA Variants After Challenge at pH 3.7 [2]: ++ (>1.5 to 2.5 relative activity over Rd4BB (SEQ ID NO: 15)); Relative Activity of GLA Variants After Challenge at pH 9.65 [3]: + (0.5 to 1.5 relative activity over Rd4BB (SEQ ID NO: 15))

B2: 486 (protein)
chain: B1 chain with M390C, S392M
modifications: Synthetic Polypeptide sequence of Variant No. 486 of mature Human GLA
**Q.** With B2 as the molecule, how does the “Relative Activity of GLA Variants After No Challenge (NC)” value [1] read?
**A.** Its value is “+ (0.5 to 1.5 relative activity over Rd4BB (SEQ ID NO: 15))”.

**Q.** And the “Relative Activity of GLA Variants After Challenge at pH 3.7” value (“Relative Activity … at pH 3.7” for short) [2]?
**A.** Its value is “+ (0.5 to 1.5 relative activity over Rd4BB (SEQ ID NO: 15))”.

**Q.** And the “Relative Activity of GLA Variants After Challenge at pH 9.65” value (“Relative Activity … at pH 9.65” for short) [3]?
**A.** The value was “+ (0.5 to 1.5 relative activity over Rd4BB (SEQ ID NO: 15))”.

B3: 488 (protein)
chain: B1 chain with T389N, S392M
modifications: Synthetic Polypeptide sequence of Variant No. 488 of mature Human GLA
**Q.** Which “Relative Activity of GLA Variants After No Challenge (NC)” value [1] does the source give for B3 here?
**A.** Its value is “+ (0.5 to 1.5 relative activity over Rd4BB (SEQ ID NO: 15))”.

**Q.** What about the “Relative Activity … at pH 3.7” value [2] of the same molecule?
**A.** The value was “+ (0.5 to 1.5 relative activity over Rd4BB (SEQ ID NO: 15))”.

**Q.** And the “Relative Activity … at pH 9.65” value [3]?
**A.** Its value is “+ (0.5 to 1.5 relative activity over Rd4BB (SEQ ID NO: 15))”.

B4: 485 (protein)
chain: B1 chain with S392W
modifications: Synthetic Polypeptide sequence of Variant No. 485 of mature Human GLA
**Q.** Which “Relative Activity of GLA Variants After No Challenge (NC)” value [1] does the source give for B4 here?
**A.** The value was “+ (0.5 to 1.5 relative activity over Rd4BB (SEQ ID NO: 15))”.

**Q.** What about the “Relative Activity … at pH 3.7” value [2] of the same molecule?
**A.** The value was “+ (0.5 to 1.5 relative activity over Rd4BB (SEQ ID NO: 15))”.

**Q.** And the “Relative Activity … at pH 9.65” value [3]?
**A.** Its value is “+ (0.5 to 1.5 relative activity over Rd4BB (SEQ ID NO: 15))”.

B5: 483 (protein)
chain: B1 chain with S392C
modifications: Synthetic Polypeptide sequence of Variant No. 483 of mature Human GLA
**Q.** Which results are given for B5?
**A.** Relative Activity of GLA Variants After No Challenge (NC) [1]: + (0.5 to 1.5 relative activity over Rd4BB (SEQ ID NO: 15)); Relative Activity of GLA Variants After Challenge at pH 3.7 [2]: + (0.5 to 1.5 relative activity over Rd4BB (SEQ ID NO: 15)); Relative Activity of GLA Variants After Challenge at pH 9.65 [3]: + (0.5 to 1.5 relative activity over Rd4BB (SEQ ID NO: 15))

B6: 487 (protein)
chain: B1 chain with T389G, S392M
modifications: Synthetic Polypeptide sequence of Variant No. 487 of mature Human GLA
**Q.** For B6, which “Relative Activity of GLA Variants After No Challenge (NC)” value [1] is on record?
**A.** The value was “+ (0.5 to 1.5 relative activity over Rd4BB (SEQ ID NO: 15))”.

**Q.** And the “Relative Activity … at pH 3.7” value [2]?
**A.** Its value is “+ (0.5 to 1.5 relative activity over Rd4BB (SEQ ID NO: 15))”.

**Q.** What about the “Relative Activity … at pH 9.65” value [3] of the same molecule?
**A.** The value was “+ (0.5 to 1.5 relative activity over Rd4BB (SEQ ID NO: 15))”.

B7: 481 (protein)
chain: B1 chain with M390G, S392M
modifications: Synthetic Polypeptide sequence of Variant No. 481 of mature Human GLA
**Q.** With B7 as the molecule, how does the “Relative Activity of GLA Variants After No Challenge (NC)” value [1] read?
**A.** The value was “+ (0.5 to 1.5 relative activity over Rd4BB (SEQ ID NO: 15))”.

**Q.** What about the “Relative Activity … at pH 3.7” value [2] of the same molecule?
**A.** Its value is “+ (0.5 to 1.5 relative activity over Rd4BB (SEQ ID NO: 15))”.

**Q.** What about the “Relative Activity … at pH 9.65” value [3] of the same molecule?
**A.** The value was “+ (0.5 to 1.5 relative activity over Rd4BB (SEQ ID NO: 15))”.

B8: 484 (protein)
chain: B1 chain with S392V
modifications: Synthetic Polypeptide sequence of Variant No. 484 of mature Human GLA
**Q.** Which results are given for B8?
**A.** Relative Activity of GLA Variants After No Challenge (NC) [1]: + (0.5 to 1.5 relative activity over Rd4BB (SEQ ID NO: 15)); Relative Activity of GLA Variants After Challenge at pH 3.7 [2]: + (0.5 to 1.5 relative activity over Rd4BB (SEQ ID NO: 15)); Relative Activity of GLA Variants After Challenge at pH 9.65 [3]: + (0.5 to 1.5 relative activity over Rd4BB (SEQ ID NO: 15))

B9: 482 (protein)
chain: B1 chain with Q385G, S392M
modifications: Synthetic Polypeptide sequence of Variant No. 482 of mature Human GLA
**Q.** With B9 as the molecule, how does the “Relative Activity of GLA Variants After No Challenge (NC)” value [1] read?
**A.** The value was “+ (0.5 to 1.5 relative activity over Rd4BB (SEQ ID NO: 15))”.

**Q.** And the “Relative Activity … at pH 3.7” value [2]?
**A.** Its value is “+ (0.5 to 1.5 relative activity over Rd4BB (SEQ ID NO: 15))”.

**Q.** And the “Relative Activity … at pH 9.65” value [3]?
**A.** Its value is “+ (0.5 to 1.5 relative activity over Rd4BB (SEQ ID NO: 15))”.

B10: 479 (protein)
chain: B1 chain with S392F
modifications: Synthetic Polypeptide sequence of Variant No. 479 of mature Human GLA
**Q.** Which “Relative Activity of GLA Variants After No Challenge (NC)” value [1] does the source give for B10 here?
**A.** The value was “+ (0.5 to 1.5 relative activity over Rd4BB (SEQ ID NO: 15))”.

**Q.** And the “Relative Activity … at pH 3.7” value [2]?
**A.** Its value is “+ (0.5 to 1.5 relative activity over Rd4BB (SEQ ID NO: 15))”.

**Q.** And the “Relative Activity … at pH 9.65” value [3]?
**A.** The value was “+ (0.5 to 1.5 relative activity over Rd4BB (SEQ ID NO: 15))”.

B11: 480 (protein)
chain: B1 chain with M390R, S392M
modifications: Synthetic Polypeptide sequence of Variant No. 480 of mature Human GLA
**Q.** With B11 as the molecule, how does the “Relative Activity of GLA Variants After No Challenge (NC)” value [1] read?
**A.** Its value is “+ (0.5 to 1.5 relative activity over Rd4BB (SEQ ID NO: 15))”.

**Q.** And the “Relative Activity … at pH 3.7” value [2]?
**A.** Its value is “+ (0.5 to 1.5 relative activity over Rd4BB (SEQ ID NO: 15))”.

**Q.** And the “Relative Activity … at pH 9.65” value [3]?
**A.** Its value is “+ (0.5 to 1.5 relative activity over Rd4BB (SEQ ID NO: 15))”.

B12: 369 (protein)
chain: LDNGLARTPTMGWLHWERFMCNLDCQEEPDSCISEKLFMEMAESMVSEGWKDAGYEYLCIDDCWMAPQRDSEGRLQADPQRFPHGIRQLANYVHSKGLKLGIYADVGNKTCAGFPGSFGYYDIDAQTFADWGVDLLKFDGCYCDSLENLADGYKHMSLALNRTGRSIVYSCEWPLYMWPFQKPNYTEIRQYCNHWRNFADIDDSWKSIKSILDWTSRNQERIVDVAGPGGWNDPDMLVIGNFGLSWDQQVTQMALWAIMAAPLFMSNDLRHISPQAKALLQDKDVIAINQDPLGKQGYQLRKGDNFEVWERPLSGDAWAVAIINRQEIGGPRSYTIPVASLGKGVACNPACFITQLLPVKRQLGFYNWTSRLKSHINPTGTVLLQLENTMQMSLKDLL
modifications: Synthetic Polypeptide sequence of Variant No. 369 of mature Human GLA
**Q.** For B12, which “Relative Activity of GLA Variants After No Challenge (NC)” value [1] is on record?
**A.** Its value is “+ (0.5 to 1.5 relative activity over Rd4BB (SEQ ID NO: 15))”.

**Q.** And the “Relative Activity … at pH 3.7” value [2]?
**A.** Its value is “+ (0.5 to 1.5 relative activity over Rd4BB (SEQ ID NO: 15))”.

**Q.** And the “Relative Activity … at pH 9.65” value [3]?
**A.** The value was “− (<0.5 relative activity over Rd4BB (SEQ ID NO: 15))”.

B13: 370 (protein)
chain: B12 chain with S44Q
modifications: Synthetic Polypeptide sequence of Variant No. 370 of mature Human GLA
**Q.** With B13 as the molecule, how does the “Relative Activity of GLA Variants After No Challenge (NC)” value [1] read?
**A.** The value was “+ (0.5 to 1.5 relative activity over Rd4BB (SEQ ID NO: 15))”.

**Q.** What about the “Relative Activity … at pH 3.7” value [2] of the same molecule?
**A.** Its value is “++ (>1.5 to 2.5 relative activity over Rd4BB (SEQ ID NO: 15))”.

**Q.** And the “Relative Activity … at pH 9.65” value [3]?
**A.** The value was “+ (0.5 to 1.5 relative activity over Rd4BB (SEQ ID NO: 15))”.
